The values below come from patent US20120141376A1, “PROSTATE SPECIFIC TRANSCRIPTS AND THE USE THEREOF FOR PROSTATE CANCER THERAPEUTICS AND DIAGNOSTICS” (priority 2006, published 2012).

To fix the notation:
B1: No. 8: DATAS fragment; ataxin 2-like; exon extension (nucleic acid, listed as Homo sapiens)
DNA: GTAGCAGGGCAGCAGACTTGGGAGAACGCGGGGGATACATCCGGCCCACTGGAAGAAAAGGGGGAGCTGTAGGATGGTTACTGCTGGTCAACAGCAGTGAGTACAAGGGCCTTACTCAAAACAGCAAGAAAGTTTACACACTATACAACCAGAGTCACCAACTTAAATGTCTAGAAGCTCAAGGCAGGTAACACAAGCAGGTAAATGGCCTCATGGGCATCATCGACAACTGGAATGCTTAAAGGAGTGGCAGGGATTCTGTTCCAGTCAACTCAAGCTACGCAGCAAGGCAAGCTCAGTTGACAGAATTTCCTGTAATTCAAAAGAAACTAAAAATTTTCTATGGCTTCTATTGATTTATTTATTTAGAGACAGGGTATCGCTCTGTTCCCC
B2: No. 21: DATAS fragment; GenBank human mRNA AK123820; exon extension (nucleic acid, listed as Homo sapiens)
DNA: GGCGGCAGGTCTAATCTGGCACACTTGCTAACTTCTAATAAAGAATCAAATGGTCTTCCAACTCACATAATGACTAATTCTAAAGCATGCAACCTCAAAGTACTACATTCTCCCTGTTCTAGAAATACAACCCTAGAGGGCCAGTCTTCCTTCAGCATTCAAATATTGAGTAGAACAACTGAACTGTAAGGTTCAACTAAAGGAATGCAACTGTGACTTGAGCTGTGGAACGGCTATGGCCTAAGTCAAGAATTCTCAACCTCCCAC
B3: No. 18: DATAS fragment; golgi SNAP receptor complex member 2; exon extension (nucleic acid, listed as Homo sapiens)
DNA: GGCCTTAGGGGCACGAGGATGTGAATCGACCTACTACTTAATATAATGGCTGTGAGAAAAGGCCTCTTTCCTTTCCTTTCCACTTTTGCTCCACCCTATCAGGAGCCAGAAAGGCCTGATGGTGACAAGGTGTGAACCGTGTGGACAGTCCTGCACACAGGGCTCACTGTGGACACCTTCCCAGGGCACGCATCAGCTGTGTGAACAAAGCCACCAAAGCCATTCTTTCCCTCCCCCGC
B4: No. 5: DATAS fragment; N-acetyltransferase 6; exon extension (nucleic acid, listed as Homo sapiens)
DNA: GTAAAGGCATGTGGAATCCAGGGGCAGCTTTGGCTGGCACGCAGGATCCAGAGTCAGCTCAGCTGGGCTGGTACTCAGGATCAGCTCCATCCGGTGTGTAGGGTCTAGTGTAGGGGTCAGCTTGGCTGGGCCAGGGCTCAGAGTCAGCTCTTGCCTATGCACAGGATCCAGGTTCAGCTGAGTCAGGCTGGGAGCCAAGGTCACCTGCTGCTAGGTTGCAGGTGGCTCAGTGCCAGGCTGGAGGTTAAGACCCCAGTCTCCAGGCAGTAGCATCTCTTCAGACCACAGTGGCTCTCCTCATGTTGATGCTGGCCTCTGGGATGTTCCGCGTCCTAGCTCCGCACAGCTGGGTATCTCACTCAGTCGCCACCTCGGCCTCCCAACA
B5: No. 9: DATAS fragment; protein kinase C, zeta; novel exon (nucleic acid, listed as Homo sapiens)
DNA: GGGCAAAGGATGTTGCCCCTGTCCTGAAGGCTGTCGCCCGATCGCTCTATCCAAGGCTGCCCTGGGGCAGCGTCACCTGGGGGTCCTGCGGGGGCTTCTCAGCACAGCATCCAGCACTGCCACCTAGTGTGTTCCCGTCACGTCTCCTCCCCCCG
B6: No. 11: DATAS fragment; cadherin-like 23; novel exon (nucleic acid, listed as Homo sapiens)
DNA: GACACCCTAGCTGCAAGGGAGGTTAGAAAAAATGAGGGACAGGATTATCATGGTCAGCATATTACTTGGGGGCCAGATATATCACTTCCCACACAAAAGCAGGCCTCTGTCAGTGAGGAAGAAGTGGAGAATGGATTTGGGGTGGGCATCTGACAGCATTTGCCACACTGCCCTCCCCAATCCTAATGCAGGCCAGTCAACGCACCACCCCCACTCCCCACCCACACTCCAACCCCCACAGTCCTAGGGTCTCTCAGGGAGACCATCGGTGGAATCCATAACATTCTAAGACCCTGCAGTTTGTAGGCAAAATCAGGCTTCCTTTGGGTGCCCCCG
B7: No. 19: DATAS fragment; GenBank human mRNA AK054845; novel exon (nucleic acid, listed as Homo sapiens)
DNA: GGGGACAGGCAGAGGTTGCACTGCACTCCAGCCTGGGTGACAGATCAAGATTCTGTCTCAAGTAATAATAATGATGATGATGATGATGATGATGATGATGATAATAACACACCTTGTTAATGTTAATTCACTGTGTTAAATCAATTAACTCATTTTCTCATAATTACCCTTGAACGAGTAAGTTATTGACATTCTCTCCATGGGAAAAAAAACCCTTGGAGAAAGGTAACTTGAATATGGCCAAATGGGCAATTTGGATAGAACTGGGATTTGAACCTAGGACATCTGATTCCACATCCTTTTCATGAGCCACAATGCTCTACATGTGGTTTTATTTCTTGGATCACATGTAACACATCCATAAAAGTGCCTCCCCCCG
B8: No. 15: DATAS fragment; GenBank Human mRNA AF116698 (intronic hit); genomic hit (nucleic acid, listed as Homo sapiens)
DNA: CGGCGCACCTGGTACGTGGTGTATGTTCCATTTGTGCTGGCCACGGTGATGATGATGATGATGCCATCTCTCCGGCTACACTGCGAGCACAGATCACAGCTCTCTGTAGCTGATGCTGGCTCTACCCACTGTATTCGGG
B9: No. 13: DATAS fragment; ATPase, Class V, type 10A; exon extension (nucleic acid, listed as Homo sapiens)
DNA: GGAGGAGGTCGGCATCACCAGTAACAGGAATCCCTCTCCCTTTGAAGGCAGTGATGGCCAGCGACTTTGCAGTGCCGAAATTCCGATACCTGGAGAGGCTCTTGATTCTTCACGGGCATTGGTGCTACTCCCGACTTGCCAACATGGTGCTGTACTTCTTCTACAAAAACACAATGTTCGTGGGCCTCCTGTTTTGGTTCCAGTTTTTCTGTGGCTTCTCTGCATCTACCATGATTGACCAGTGGTATCTAATCTTCTTTAATCTGCTCTTCTCGTCACCTCCAACGA
B10: No. 14: DATAS fragment; zinc finger protein 142 (clone pHZ-49); exon extension (nucleic acid, listed as Homo sapiens)
DNA: CGGACCAGGACAAAATCATGACGATGCTCCATCCCAAGCCTTCCAGGTTACAAACCGCCTTTCCAGTTCGCTGGCTCTTATGATCCAGCTCCTGCCCGACGATGTGGACACTGTCATCACCTCCATTTTACAGATAGGAAAGCTGAGGCCCAGAGAAGCGAAGCGACTGTGTCTGTCCAAGACCACGCGCCCTCCTCCCTGTC
B11: No. 10: DATAS fragment; transferrin receptor (p90, CD71); novel exon (nucleic acid, listed as Homo sapiens)
DNA: GTGGCGAGGCGGTTCGGGACGGAGGACGCGCTAGTGTTCTTCTGTGTGGCAGTTCAGAATGATGGATCAAGCTAGATCAGCATTCTCTAACTTGTTTGGTGGAGAACCATTGTCATATACCCGGTTCAGCCTGCTCTCC
B12: No. 6: DATAS fragment; transmembrane protease, serine 2; exon extension (nucleic acid, listed as Homo sapiens)
DNA: GCCGAGGTCTTCCCTAAGGACAGGGAGACTTGTTGAGCTCCCAGTGTTGCCTGCAGCTCTCGCAGGGAGAGCACACTTCCCTCCCTGAGACCTCCACACGCACTACACAGATGGTCACAGCCCTATTCTCCAGCCCTGCCCCCGTCAGCTCATCCCAGCACCAACCCCTCTCCTGGGAAACCTGGATTCTCCTTACAACTGGCGGTGCCTGTGCTGAATGCAGCTCTGGAGTTCAGCTTCAGGGAAAGAAATTCCCAGCTCTGAAACTATAGGGCTCTATCAGTGCCATGGAATCCCCCTCTTATTCACCCAACGGCTTGGTTCTGCTGAACCAATTTCCCACTCCTCACTGAACCCCACCCAGGACACACAGGCGCCTGTTTCCCCTCTGGCATGCACACACTCTTCTGGAGCACACGCGACCCTCCCTAGGCCGCCTGCTTCTCGGCTCCCCTGCACA

The test system of the data set is HLA class I (e.g. HLA-A2) expressing adherent 293T cells. Put plainly: CTL assay on reverse transfected microarray (caspase activation, fluorescent Z-VAD). To be noted: HLA-matched CD8+ T cells from prostate cancer patients incubated 4 hours on array; red fluorescent signal = positive response. The class given is cell-based, human. An excerpt: Additional patient samples were procured for the cytotoxic T Lymphocyte (CTL) assay. […] (PBMC) were isolated from blood drawn from patients with relevant clinical parameters, and with patient consent. Clinical data generally included patent history, physiopathology, and parameters relating to prostate cancer physiology. PBMCs were collected from 6 prostate cancer patients that met the study requirements. Duplicate samples were obtained from a single patient.
The 192 selected DATAS fragments were PCR amplified out of the library vector and directionally cloned into a eukaryotic expression vector down stream from staggered start site initiation codons. This configuration allows the DATAS fragment to be expressed in all the open reading frames, which is required because the correct reading frame is not always readily apparent.
Plasmid preparations were performed and the expression vectors containing the selcted DATAS fragment clones were re-arrayed into 96 well plates, which were subsequently used to spot glass slides for use in the CTL assay previously disclosed in International Patent Application No. PTC/US2005/032392, the disclosure of which is incorporated by reference in its entirety.
A design file containing the desired microarray positions of the DATAS expression vectors was uploaded into a high resolution scanner. The expression vectors containing the DATAS fragments were mixed with gelatin and lipofectamine and then spotted in duplicate in a pattern that matched the design file uploaded into the high resolution microarray scanner. The following positive controls, negative controls and experimental samples were spotted on the array.
The spotted arrays were then overlaid with HLA class I (e.g. HLA-A2) expressing adherent 293T cells and cultured for 48-72 hours to allow cells time to express vector-encoded transcripts.
The assay for CTL reactivity was then performed by incubating HLA-matched CD8^+ T cells from normal and prostate cancer patients on cultured reverse transfected microarray slides for 4 hours. Prior to incubation with the array, T cells from normals or patients may need to be expanded in vitro, to a small or large extent, to enhance the frequency of responding T cells. An inhibitor of activated caspase, fluorescence-tagged (sulfo-Rhodamine)-Z-VAD, is present throughout the cell incubation to bind caspases that become activated when antigen expressing adherent cells on certain spots are induced to die by the CTL. The slides are then washed to remove unbound fluorescent Z-VAD and 2-color (Green and Red) fluorescence images of the microarray slides are obtained with the microarray scanner.
Analysis and confirmation of data is then determined by visual inspection of the scanned image. The success of the reverse transfection is evaluated by observing green fluorescence at EGFP vector control spots. Then the fluorescence threshold(s) are adjusted on microarray scanner as necessary to establish relevant background and positive control signal intensities. […] Using the coordinate locations for the spots, the cDNAs yielding positive responses are identified.
Consider B1, for which the “Patient ID with positive hit” value is “MSMPB”.
On to B2, for which the “Patient ID with positive hit” value is “EYGRT”.
For B3 the value was “FRJY5”.
Then B4, with “EYGRT”; and B5, with “EYGRT”.
For B6 the value was “MSMPB; P72”.
For B7, the “Patient ID with positive hit” value is “EYGRT”.
Then B8, with “MSMPB”; and B9, with “MSMPB”; and B10, with “MSMPB”.
Then B11, with “MSMPB”; and B12, with “EYGRT”.
